This note sets out measurements from patent US20160272691A1, “COMPOSITIONS AND METHODS FOR TREATING CONDITIONS ASSOCIATED WITH y-HERPESVIRUSES” (NDSU RESEARCH FOUNDATION, priority 2013, published 2016).

Assay [1] has as its target T1, His6-tagged Bcl-XL (residues 1-208, N52D, N66D) (human), Q07817.
T1 chain: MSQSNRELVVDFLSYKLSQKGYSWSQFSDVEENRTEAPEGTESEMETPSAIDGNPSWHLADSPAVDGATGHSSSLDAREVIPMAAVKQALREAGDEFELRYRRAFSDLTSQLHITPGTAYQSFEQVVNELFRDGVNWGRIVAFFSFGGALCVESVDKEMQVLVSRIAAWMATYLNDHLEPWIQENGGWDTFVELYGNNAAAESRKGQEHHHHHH
The assay can be described thus: ITC. (In general: In ITC the heat of successive injections is recorded.)

Assay [2] deals with T2, γHV68 M11 residues 1-136 (murine γHV68), P89884.
T2 chain: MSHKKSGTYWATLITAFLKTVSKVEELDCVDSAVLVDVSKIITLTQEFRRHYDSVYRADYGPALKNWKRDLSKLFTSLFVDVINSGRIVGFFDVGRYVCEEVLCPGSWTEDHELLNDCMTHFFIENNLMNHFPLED
The assay can be described thus: ITC.

Assay [3] concerns the target T1, His6-tagged Bcl-XL (residues 1-208, …). The assay can be described thus: ITC, 25 °C.
The target of assay [4] is T2, γHV68 M11 residues 1-136 (murine …). The assay can be described thus: ITC, 25 °C.
For assay [5], the target named is T1, His6-tagged Bcl-XL (residues 1-208, …). The assay can be described thus: ITC (Table 4; quantity and unit in Table 1).
The target of assay [6] is T2, γHV68 M11 residues 1-136 (murine …). The assay is described as follows: ITC (Table 4; quantity and unit in Table 1).
Assay [7] has as its target Bcl-2, P10415. The assay can be described thus: ITC (Table 4; quantity and unit in Table 1).
The target in assay [8] is Bcl-2, P10415. The assay can be described thus: not stated in the sentence (ITC implied).
Sequence of Bcl-2, P10415 (P10415 1-211 limits assumed): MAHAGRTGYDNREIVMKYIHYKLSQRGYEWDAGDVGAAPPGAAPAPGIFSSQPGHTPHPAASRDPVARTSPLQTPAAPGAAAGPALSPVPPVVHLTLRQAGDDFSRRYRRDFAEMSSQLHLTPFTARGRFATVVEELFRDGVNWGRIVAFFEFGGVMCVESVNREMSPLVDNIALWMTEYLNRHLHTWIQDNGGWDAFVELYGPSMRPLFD
Another assay addresses KSHV Bcl-2 (KSHV). The assay is described as follows: not stated in the sentence (ITC implied).

For orientation: Kd means the constant that tells how readily two partners part at equilibrium. Read a low Kd as tighter binding.

Turning to GSGTMENLSRRLKVTGDLADIMSGQT (modifications not checked) [Beclin 1 BH3D-derived peptide F123A], the fold weakening of binding versus WT BH3D in assay [1] came out at 10 fold; in assay [2], 4 fold. Besides, the Kd in [3] turned out to be 408 µM; in [4], 5.2 µM; in assay [5], 408 µM; in [6], 5.2 µM. Moreover, the ΔG in [3] was -4.63 kcal/mol; in assay [4] it was -7.22 kcal/mol. Besides, the values for the ΔH in assay [3] and in assay [4] were -7.34 kcal/mol and -14.2 kcal/mol, respectively. Also, the ΔS in [3] was -38 J/K · mol; in [4], -97.8 J/K · mol.
In assay [2], GSGTMENLSRRAKVTGDLFDIMSGQT (modifications not checked) [Beclin 1 BH3D-derived peptide L116A] displayed a fold reduction of binding affinity versus WT BH3D of more than 70 fold. Also, in assay [4], the Kd is 178 µM, the ΔG is -5.11 kcal/mol, the ΔH was -8.7 kcal/mol and the ΔS was -50.3 J/K · mol. Also, the Kd in assay [6] was determined as 178 µM.
Molecule GSGTMENLSRRLAVTGDLFDIMSGQT (modifications not checked) [Beclin 1 BH3D-derived peptide K117A] registered a fold weakening of binding versus WT BH3D in assay [1] of 10 fold. The molecule further yielded a fold improvement of binding versus WT BH3D in assay [2] of 2 fold. The Kd in [3] was 18.9 µM; in assay [4] it was 0.66 µM; with Bcl-2, P10415 [7], 24.5 µM; in [5], 18.9 µM; in [6], 0.7 µM. The ΔG is -6.45 kcal/mol in assay [3] and -8.44 kcal/mol in assay [4]. In addition, the ΔH was -9 kcal/mol in assay [3] and -16.5 kcal/mol in assay [4]. For the same molecule, the ΔS in [3] is -35.8 J/K · mol; in assay [4], -113 J/K · mol.
In [2], GSGTMENASRRLKVTGDLFDIMSGQT (modifications not checked) [Beclin 1 BH3D-derived peptide L112A] had a fold reduction of binding versus WT BH3D of 3 fold. In [3], this molecule came in with a Kd of 110 µM, a ΔG of -5.4 kcal/mol, a ΔH of -10.1 kcal/mol and a ΔS of -66.3 J/K · mol. In assay [4], the Kd was 4.33 µM, the ΔG is -7.32 kcal/mol, the ΔH is -11.3 kcal/mol and the ΔS is -56.1 J/K · mol. For the same molecule, in assay [5], the Kd turned out to be 110 µM. In assay [6], this molecule gave a Kd of 4.3 µM.
In [6], GSGTMENLSRRLKVTGALFDIMSGQT (modifications not checked) [Beclin 1 BH3D-derived peptide D121A] gave a Kd of 1.3 µM.
The molecule GSGTMENLSRRLKVTGDLFDIMSGQT (modifications not checked) [Beclin 1 BH3D peptide, wild type] displayed a fold difference in TΔSapp versus binding to Bcl-XL in assay [2] of 4 fold. Besides, in [2], the fold difference in ΔHapp versus binding to Bcl-XL stood at 2 fold. The dissociation constant (Kd) in [3] came to 1.95 µM; in assay [4], 1.38 µM; in the assay with Bcl-2, P10415 [8], 9 µM; with KSHV Bcl-2 (KSHV) it was 54 µM; with Bcl-2, P10415 [7] it was 10.4 µM; in [5], 1.9 µM. This molecule also came in with a Kd in assay [6] of 1.4 µM. For the same molecule, the figures for the ΔG in [3] and in assay [4] were -7.79 kcal/mol and -8.01 kcal/mol, respectively. Besides, the ΔH in [3] was -10.4 kcal/mol; in assay [4] it was -17 kcal/mol. Besides, the ΔS in assay [3] is -36.9 J/K · mol; in assay [4] it was -126 J/K · mol.
Consider GSGTMENLSRRLKVTEDLFDIMSGQT (modifications not checked) [Beclin 1 BH3D-derived peptide G120E], for which the fold reduction of binding affinity versus WT BH3D in [2] was 26 fold. In assay [4], this molecule had a Kd of 36.5 µM, a ΔG of -6.06 kcal/mol, a ΔH of -12.5 kcal/mol and a ΔS of -90 J/K · mol. Besides, the Kd in assay [6] is 36.5 µM.
With GSGTMENLSRRLKVTEALFDIMSGQT (modifications not checked) [Beclin 1 BH3D-derived G120E+D121A double mutant peptide], in assay [2], the fold better affinity versus the G120E peptide was 5.7 fold and the fold weaker affinity versus WT BH3D was 4.7 fold. Moreover, in assay [4], the Kd amounted to 6.43 µM, the ΔG was -7.08 kcal/mol, the ΔH was -14.9 kcal/mol and the ΔS is -110 J/K · mol. The Kd in assay [6] was found to be 6.4 µM.
